Results from the supplement of paper PMC11316812.
± gives the standard deviation of the averaged measurements.

How the values were obtained:
MCF7 = assay: percentage of EdU-negative (G0-arrested) nuclei per well, 72 h; higher = more G0 arrest; settings: reference: sequence is the full UniProt precursor, the tested protein was the secreted form or ectodomain
hTERT-HMEC = assay: as above; settings: reference: sequence is the full UniProt precursor, the tested protein was the secreted form or ectodomain
[1] = protein concentration 0.0225 µM
[2] = protein concentration 0.0257143 µM
[3] = protein concentration 0.257143 µM
[4] = protein concentration 0.0175 µM
[5] = protein concentration 0.0357143 µM
[6] = protein concentration 0.357143 µM
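Note: secreted proteins added to cultured cells, EdU pulse at the end, nuclei found by Hoechst imaging, EdU status from nuclear versus surrounding ring intensity ratio, PBS as neutral control.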

Sequence	percentage of EdU-negative (MCF7; [1]) [%]	percentage of EdU-negative (MCF7; protein concentration 0.225 µM) [%]	percentage of EdU-negative (hTERT-HMEC; [1]) [%]	percentage of EdU-negative (hTERT-HMEC; protein concentration 0.225 µM) [%]	other results
MPRYGASLRQSCPRSGREQGQDGTAGAPGLLWMGLVLALALALALALALSDSRVLWAPAEAHPLSPQGHPARLHRIVPRLRDVFGWGNLTCPICKGLFTAINLGLKKEPNVARVGSVAIKLCNLLKIAPPAVCQSIVHLFEDDMVEVWRRSVLSPSEACGLLLGSTCGHWDIFSSWNISLPTVPKPPPKPPSPPAPGAPVSRILFLTDLHWDHDYLEGTDPDCADPLCCRRGSGLPPASRPGAGYWGEYSKCDLPLRTLESLLSGLGPAGPFDMVYWTGDIPAHDVWHQTRQDQLRALTTVTALVRKFLGPVPVYPAVGNHESTPVNSFPPPFIEGNHSSRWLYEAMAKAWEPWLPAEALRTLRIGGFYALSPYPGLRLISLNMNFCSRENFWLLINSTDPAGQLQWLVGELQAAEDRGDKVHIIGHIPPGHCLKSWSWNYYRIVARYENTLAAQFFGHTHVDEFEVFYDEETLSRPLAVAFLAPSATTYIGLNPGYRVYQIDGNYSGSSHVVLDHETYILNLTQANIPGAIPHWQLLYRARETYGLPNTLPTAWHNLVYRMRGDMQLFQTFWFLYHKGHPPSEPCGTPCRLATLCAQLSARADSPALCRHLMPDGSLPEAQSLWPRPLFC	24.3 ± 1.8	24.4 ± 1.7	4.79 ± 0.51	5.82 ± 1.2	–
MAPAMESPTLLCVALLFFAPDGVLAVPQKPKVSLNPPWNRIFKGENVTLTCNGNNFFEVSSTKWFHNGSLSEETNSSLNIVNAKFEDSGEYKCQHQQVNESEPVYLEVFSDWLLLQASAEVVMEGQPLFLRCHGWRNWDVYKVIYYKDGEALKYWYENHNISITNATVEDSGTYYCTGKVWQLDYESEPLNITVIKAPREKYWLQFFIPLLVVILFAVDTGLFISTQQQVTFLLKIKRTRKGFRLLNPHPKPNPKNN	–	–	–	–	percentage of EdU-negative (MCF7; [2]): 24.7 ± 1.3%; percentage of EdU-negative (MCF7; [3]): 25.9 ± 1.7%; percentage of EdU-negative (hTERT-HMEC; [2]): 4.74 ± 1.5%; percentage of EdU-negative (hTERT-HMEC; [3]): 5.8 ± 0.29%
MAVKLGTLLLALALGLAQPASARRKLLVFLLDGFRSDYISDEALESLPGFKEIVSRGVKVDYLTPDFPSLSYPNYYTLMTGRHCEVHQMIGNYMWDPTTNKSFDIGVNKDSLMPLWWNGSEPLWVTLTKAKRKVYMYYWPGCEVEILGVRPTYCLEYKNVPTDINFANAVSDALDSFKSGRADLAAIYHERIDVEGHHYGPASPQRKDALKAVDTVLKYMTKWIQERGLQDRLNVIIFSDHGMTDIFWMDKVIELNKYISLNDLQQVKDRGPVVSLWPAPGKHSEIYNKLSTVEHMTVYEKEAIPSRFYYKKGKFVSPLTLVADEGWFITENREMLPFWMNSTGRREGWQRGWHGYDNELMDMRGIFLAFGPDFKSNFRAAPIRSVDVYNVMCNVVGITPLPNNGSWSRVMCMLKGRASTAPPVWPSHCALALILLFLLA [Q6UWR7]	25.6 ± 0.4	27.791 ± 0.0037	4.73 ± 0.19	5.87 ± 0.68	–
MQPRTPLVLCVLLSQVLLLTSAEDLDCTPGFQQKVFHINQPAEFIEDQSILNLTFSDCKGNDKLRYEVSSPYFKVNSDGGLVALRNITAVGKTLFVHARTPHAEDMAELVIVGGKDIQGSLQDIFKFARTSPVPRQKRSIVVSPILIPENQRQPFPRDVGKVVDSDRPERSKFRLTGKGVDQEPKGIFRINENTGSVSVTRTLDREVIAVYQLFVETTDVNGKTLEGPVPLEVIVIDQNDNRPIFREGPYIGHVMEGSPTGTTVMRMTAFDADDPATDNALLRYNIRQQTPDKPSPNMFYIDPEKGDIVTVVSPALLDRETLENPKYELIIEAQDMAGLDVGLTGTATATIMIDDKNDHSPKFTKKEFQATVEEGAVGVIVNLTVEDKDDPTTGAWRAAYTIINGNPGQSFEIHTNPQTNEGMLSVVKPLDYEISAFHTLLIKVENEDPLVPDVSYGPSSTATVHITVLDVNEGPVFYPDPMMVTRQEDLSVGSVLLTVNATDPDSLQHQTIRYSVYKDPAGWLNINPINGTVDTTAVLDRESPFVDNSVYTALFLAIDSGNPPATGTGTLLITLEDVNDNAPFIYPTVAEVCDDAKNLSVVILGASDKDLHPNTDPFKFEIHKQAVPDKVWKISKINNTHALVSLLQNLNKANYNLPIMVTDSGKPPMTNITDLRVQVCSCRNSKVDCNAAGALRFSLPSVLLLSLFSLACL	24.7 ± 1.2	27.1 ± 0.61	4.14 ± 0.25	9.2557 ± 0.0081	–
MEGGDQSEEEPRERSQAGGMGTLWSQESTPEERLPVEGSRPWAVARRVLTAILILGLLLCFSVLLFYNFQNCGPRPCETSVCLDLRDHYLASGNTSVAPCTDFFSFACGRAKETNNSFQELATKNKNRLRRILEVQNSWHPGSGEEKAFQFYNSCMDTLAIEAAGTGPLRQVIEELGGWRISGKWTSLNFNRTLRLLMSQYGHFPFFRAYLGPHPASPHTPVIQIDQPEFDVPLKQDQEQKIYAQIFREYLTYLNQLGTLLGGDPSKVQEHSSLSISITSRLFQFLRPLEQRRAQGKLFQMVTIDQLKEMAPAIDWLSCLQATFTPMSLSPSQSLVVHDVEYLKNMSQLVEEMLLKQRDFLQSHMILGLVVTLSPALDSQFQEARRKLSQKLRELTEQPPMPARPRWMKCVEETGTFFEPTLAALFVREAFGPSTRSAAMKLFTAIRDALITRLRNLPWMNEETQNMAQDKVAQLQVEMGASEWALKPELARQEYNDIQLGSSFLQSVLSCVRSLRARIVQSFLQPHPQHRWKVSPWDVNAYYSVSDHVVVFPAGLLQPPFFHPGYPRAVNFGAAGSIMAHELLHIFYQLLLPGGCLACDNHALQEAHLCLKRHYAAFPLPSRTSFNDSLTFLENAADVGGLAIALQAYSKRLLRHHGETVLPSLDLSPQQIFFRSYAQVMCRKPSPQDSHDTHSPPHLRVHGPLSSTPAFARYFRCARGALLNPSSRCQLW	26.89 ± 0.16	27.1 ± 3.5	4.88 ± 0.16	6.43 ± 0.18	–
MAGPPRLLLLPLLLALARGLPGALAAQEVQQSPHCTTVPVGASVNITCSTSGGLRGIYLRQLGPQPQDIIYYEDGVVPTTDRRFRGRIDFSGSQDNLTITMHRLQLSDTGTYTCQAITEVNVYGSGTLVLVTEEQSQGWHRCSDAPPRASALPAPPTGSALPDPQTASALPDPPAASALPAALAVISFLLGLGLGVACVLARTQIKKLCSWRDKNSAACVVYEDMSHSRCNTLSSPNQYQ	25.1 ± 0.98	24.68 ± 0.088	5.29 ± 0.21	4.88 ± 0.12	–
MSAFRLWPGLLIMLGSLCHRGSPCGLSTHVEIGHRALEFLQLHNGRVNYRELLLEHQDAYQAGIVFPDCFYPSICKGGKFHDVSESTHWTPFLNASVHYIRENYPLPWEKDTEKLVAFLFGITSHMAADVSWHSLGLEQGFLRTMGAIDFHGSYSEAHSAGDFGGDVLSQFEFNFNYLARRWYVPVKDLLGIYEKLYGRKVITENVIVDCSHIQFLEMYGEMLAVSKLYPTYSTKSPFLVEQFQEYFLGGLDDMAFWSTNIYHLTSFMLENGTSDCNLPENPLFIACGGQQNHTQGSKMQKNDFHRNLTTSLTESVDRNINYTERGVFFSVNSWTPDSMSFIYKALERNIRTMFIGGSQLSQKHVSSPLASYFLSFPYARLGWAMTSADLNQDGHGDLVVGAPGYSRPGHIHIGRVYLIYGNDLGLPPVDLDLDKEAHRILEGFQPSGRFGSALAVLDFNVDGVPDLAVGAPSVGSEQLTYKGAVYVYFGSKQGGMSSSPNITISCQDIYCNLGWTLLAADVNGDSEPDLVIGSPFAPGGGKQKGIVAAFYSGPSLSDKEKLNVEAANWTVRGEEDFSWFGYSLHGVTVDNRTLLLVGSPTWKNASRLGHLLHIRDEKKSLGRVYGYFPPNGQSWFTISGDKAMGKLGTSLSSGHVLMNGTLKQVLLVGAPTYDDVSKVAFLTVTLHQGGATRMYALTSDAQPLLLSTFSGDRRFSRFGGVLHLSDLDDDGLDEIIMAAPLRIADVTSGLIGGEDGRVYVYNGKETTLGDMTGKCKSWITPCPEEKAQYVLISPEASSRFGSSLITVRSKAKNQVVIAAGRSSLGARLSGALHVYSLGSD	–	–	–	–	percentage of EdU-negative (MCF7; [4]): 25.88 ± 0.089%; percentage of EdU-negative (MCF7; protein concentration 0.175 µM): 31.8 ± 1.3%; percentage of EdU-negative (hTERT-HMEC; [4]): 4.66 ± 0.8%; percentage of EdU-negative (hTERT-HMEC; protein concentration 0.175 µM): 7.38 ± 0.61%
MCTKTIPVLWGCFLLWNLYVSSSQTIYPGIKARITQRALDYGVQAGMKMIEQMLKEKKLPDLSGSESLEFLKVDYVNYNFSNIKISAFSFPNTSLAFVPGVGIKALTNHGTANISTDWGFESPLFQDTGGADLFLSGVYFTGIIILTRNDFGHPTLKLQDCYAQLSHAHVSFSGELSVLYNSFAEPMEKPILKNLNEMLCPIIASEVKALNANLSTLEVLTKIDNYTLLDYSLISSPEITENYLDLNLKGVFYPLENLTDPPFSPVPFVLPERSNSMLYIGIAEYFFKSASFAHFTAGVFNVTLSTEEISNHFVQNSQGLGNVLSRIAEIYILSQPFMVRIMATEPPIINLQPGNFTLDIPASIMMLTQPKNSTVETIVSMDFVASTSVGLVILGQRLVCSLSLNRFRLALPESNRSNIEVLRFENILSSILHFGVLPLANAKLQQGFPLSNPHKFLFVNSDIEVLEGFLLISTDLKYETSSKQQPSFHVWEGLNLISRQWRGKSAP [Q8NFQ6]	–	–	–	–	percentage of EdU-negative (MCF7; [5]): 25.1 ± 3.5%; percentage of EdU-negative (MCF7; [6]): 31.5 ± 2.8%; percentage of EdU-negative (hTERT-HMEC; [5]): 5.01 ± 0.62%; percentage of EdU-negative (hTERT-HMEC; [6]): 21.7 ± 0.58%
